One molecule from article doi:10.1101/2021.04.25.441346 (bioRxiv, 2021) can be followed below.

The test has as its target T1, GST-AFF1 (AUXIN RESPONSE FACTOR F-BOX1, At3g49150) (Arabidopsis thaliana, UniProt Q9M3B7 1-630).
T1 sequence (looked up): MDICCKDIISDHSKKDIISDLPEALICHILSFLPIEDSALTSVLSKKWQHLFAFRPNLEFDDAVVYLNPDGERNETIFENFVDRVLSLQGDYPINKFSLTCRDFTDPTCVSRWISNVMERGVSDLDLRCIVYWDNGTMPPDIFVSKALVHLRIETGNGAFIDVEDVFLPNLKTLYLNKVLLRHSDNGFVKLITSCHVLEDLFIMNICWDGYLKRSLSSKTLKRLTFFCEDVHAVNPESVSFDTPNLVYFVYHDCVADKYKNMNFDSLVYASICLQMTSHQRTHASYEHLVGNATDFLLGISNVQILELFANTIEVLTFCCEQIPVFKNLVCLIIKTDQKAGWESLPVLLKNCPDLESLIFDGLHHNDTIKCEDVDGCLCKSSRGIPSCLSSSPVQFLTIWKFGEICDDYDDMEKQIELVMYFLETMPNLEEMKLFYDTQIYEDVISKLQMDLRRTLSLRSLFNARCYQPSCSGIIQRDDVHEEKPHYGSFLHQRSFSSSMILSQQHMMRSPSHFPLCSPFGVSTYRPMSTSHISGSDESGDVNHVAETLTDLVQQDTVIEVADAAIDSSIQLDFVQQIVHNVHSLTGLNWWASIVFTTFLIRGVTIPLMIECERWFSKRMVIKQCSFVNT
Description: pull-down.

B1: His-ASK1 (ARABIDOPSIS SKP1-LIKE 1) (natural protein, Arabidopsis thaliana, UniProt Q39255 1-160, looked up)
chain: MSAKKIVLKSSDGESFEVEEAVALESQTIAHMVEDDCVDNGVPLPNVTSKILAKVIEYCKRHVEAAASKAEAVEGAATSDDDLKAWDADFMKIDQATLFELILAANYLNIKNLLDLTCQTVADMIKGKTPEEIRTTFNIKNDFTPEEEEEVRRENQWAFE
Turning to B1, the binding result is “binds”.
